In assay [1] the target is T1, human coagulation factor XI (FXI) (human, UniProt P03951 19-625).
T1 construct: mature; also called plasma FXI; human FXI
Nature of the assay: competition ELISA on coated human FXI; competitor biotinylated murine mAb anti-FXI 34.2. (An ELISA detects its analyte on a solid surface through an enzyme-linked reagent.)
From the text: The binding of the biotinylated antibody was detected with streptavidin-HRP (Sigma) and OPD substrate (Sigma. The reaction was stopped with 3M HCl, absorbance read at 490 nm on a Dynex Technologies MRX TC II plate reader and the binding curves plotted.

The target in assay [2] is T1, human coagulation factor XI (FXI). The assay is described as follows: cell-based or functional assay.
For assay [3] the target is unchanged. Nature of the assay: SPR (Biacore), FXI immobilized on CM5 chip, mAb as analyte. (SPR reads the build-up and loss of mass on a sensor chip optically.)
Method: (§1) Surface plasmon resonance was on a Biacore 2000 (GE Healthcare) equipped with a research-grade cm5 sensor chip to assess the affinity constants of the mAbs for FXI. Factor XI was immobilized using amine-coupling chemistry. the surface was activated for 7 min with a 1:1 mixture of 0.1 M N-hydroxysuccinimide and 0.1 M 3-(N,N-dimethylamino) propyl-N-ethylcarbodiimide at a flow rate of 10 l per min. The ligand at a concentration of 10 μg/ml in 10 mM sodium acetate, pH 5.5, was immobilized at a density of 1000 ru. An untreated flow cell served as a reference surface. All the surfaces were blocked with a 7 min injection of 1 M ethanolamine, pH 8.0. The following protocol was used to assess kinetic binding of the mAbs to FXI. […] The complex was allowed to associate and dissociate for 360 and 600 seconds, respectively. The surfaces were regenerated with a 10 seconds injection of 50 mM NaOH. Triplicate injections (in random order) of each sample and a buffer blank were flowed over the two surfaces. Data were collected at a rate of 1 Hz. The data were fit to a simple 1:1 interaction model using the global data analysis option available within BiaEvaluation 4.1 software.
Assay [4] shares this target. Described as above. This is another data set of the same source.
Method: as §1

Where two headings read alike, the source gives them in different places.

B1: composite human mAb VH2/Vκ2 (antibody, V domains shown)
VH: QVQLVQSGSELKKPGASVKLSCKASGYTFTRYWMHWVKQAPGQGLEWIGNIYPDSDSTNYDEKFRTRATLTADTSTSTAYMELSSLRSEDTAVYYCTRMGFYAMDYWGQGTTVTVSS
VL: NIVMTQSPSSLSASVGDRVTITCKASENVVTYVSWFQQKPGQAPKLLIYGASNRYTGVPDRFSGSGSATDFTLTISSLQAEDVADYHCGQSYSYPLTFGQGTKLEIKR
notes: Human IgG4 (S241P hinge mutant) heavy chain and human kappa light chain
What is called Kd is the constant that tells how readily two partners part at equilibrium. For B1, in assay [1], the “Relative IC50” value was 0.92 relative to IC50 of mouse-human chimeric mAb anti-FXI 34.2. For the same molecule, the “APTT (% NPP)” value in assay [2] amounted to 243 % NPP. The molecule also registered an equilibrium dissociation constant (Kd) in assay [3] of 0.88 nM.

B2: composite human mAb VH3/Vκ3 (antibody, V domains shown)
VH: QVQLVQSGSELKKPGASVKLSCKASGYTFTRYWMHWVRQAPGQGLEWIGNIYPDSDSTNYDEKFRTRVTLTADTSTSTAYMELSSLRSEDTAVYYCTRMGFYAMDYWGQGTTVTVSS
VL: DIVMTQSPSSLSASVGDRVTITCKASENVVTYVSWFQQKPGQAPKLLIYGASNRYTGVPDRFSGSGSGTDFTLTISSLQAEDVADYHCGQSYSYPLTFGQGTKLEIKR
notes: as for B1
B2: the “Relative IC50” value in assay [1] was 0.99 relative to IC50 of mouse-human chimeric mAb anti-FXI 34.2. For the same molecule, the “APTT (% NPP)” value in assay [2] worked out at 256 % NPP. Besides, the Kd in assay [3] was 0.081 nM.

B3: composite human mAb VH2/Vκ4 (antibody, V domains shown)
VH: QVQLVQSGSELKKPGASVKLSCKASGYTFTRYWMHWVKQAPGQGLEWIGNIYPDSDSTNYDEKFRTRATLTADTSTSTAYMELSSLRSEDTAVYYCTRMGFYAMDYWGQGTTVTVSS
VL: DIVMTQSPSSLSASVGDRVTITCKASENVVTYVSWFQQKPGQAPKLLIYGASNRYTGVPDRFSGSGSGTDFTLTISSLQAEDVATYHCGQSYSYPLTFGQGTKLEIKR
notes: as for B1
Turning to B3, in assay [1], the “Relative IC50” value was 0.98 relative to IC50 of mouse-human chimeric mAb anti-FXI 34.2. In addition, in assay [2], the “APTT (% NPP)” value stood at 259 % NPP. For the same molecule, the affinity in assay [3], expressed as Kd, was 0.062 nM.

B4: composite human mAb VH1/Vκ4 (antibody, V domains shown)
VH: QVQLVQSGSELKKPGASVKLSCKASGYTFTRYWMHWVKQAHGQGLEWIGNIYPDSDSTNYDEKFRTRATLTADTSTSTAYMHLSSLTSEDSAVYYCTRMGFYAMDYWGQGTSVTVSS
VL: DIVMTQSPSSLSASVGDRVTITCKASENVVTYVSWFQQKPGQAPKLLIYGASNRYTGVPDRFSGSGSGTDFTLTISSLQAEDVATYHCGQSYSYPLTFGQGTKLEIKR
notes: as for B1
On to B4, for which the “Relative IC50” value in assay [1] is 0.89 relative to IC50 of mouse-human chimeric mAb anti-FXI 34.2. Moreover, the “APTT (% NPP)” value in assay [2] turned out to be 260 % NPP. The same molecule returned a dissociation constant (Kd) in assay [3] of 0.35 nM.

B5: composite human mAb VH2/Vκ1 (antibody, V domains shown)
VH: QVQLVQSGSELKKPGASVKLSCKASGYTFTRYWMHWVKQAPGQGLEWIGNIYPDSDSTNYDEKFRTRATLTADTSTSTAYMELSSLRSEDTAVYYCTRMGFYAMDYWGQGTTVTVSS
VL: NIVMTQSPSSLSASVGDRVTITCKASENVVTYVSWFQQKPGQAPKLLIYGASNRYTGVPDRFTGSGSATDFTLTISSLQAEDVADYHCGQSYSYPLTFGQGTKLEIKR
notes: as for B1
For the molecule B5, the “Relative IC50” value in assay [1] was 0.84 relative to IC50 of mouse-human chimeric mAb anti-FXI 34.2. The “APTT (% NPP)” value in assay [2] was found to be 252 % NPP. In assay [3], the Kd amounted to 0.24 nM.

B6: composite human mAb VH3/Vκ1 (antibody, V domains shown)
VH: QVQLVQSGSELKKPGASVKLSCKASGYTFTRYWMHWVRQAPGQGLEWIGNIYPDSDSTNYDEKFRTRVTLTADTSTSTAYMELSSLRSEDTAVYYCTRMGFYAMDYWGQGTTVTVSS
VL: NIVMTQSPSSLSASVGDRVTITCKASENVVTYVSWFQQKPGQAPKLLIYGASNRYTGVPDRFTGSGSATDFTLTISSLQAEDVADYHCGQSYSYPLTFGQGTKLEIKR
notes: as for B1
Turning to B6, the “Relative IC50” value in assay [1] was 0.87 relative to IC50 of mouse-human chimeric mAb anti-FXI 34.2. Also, in assay [2], the “APTT (% NPP)” value worked out at 250 % NPP. Binding in assay [3] was characterised by a dissociation constant (Kd) of 0.13 nM.

B7: composite human mAb VH1/Vκ2 (antibody, V domains shown)
VH: QVQLVQSGSELKKPGASVKLSCKASGYTFTRYWMHWVKQAHGQGLEWIGNIYPDSDSTNYDEKFRTRATLTADTSTSTAYMHLSSLTSEDSAVYYCTRMGFYAMDYWGQGTSVTVSS
VL: NIVMTQSPSSLSASVGDRVTITCKASENVVTYVSWFQQKPGQAPKLLIYGASNRYTGVPDRFSGSGSATDFTLTISSLQAEDVADYHCGQSYSYPLTFGQGTKLEIKR
notes: as for B1
On to B7, for which, in assay [1], the “Relative IC50” value was 0.69 relative to IC50 of mouse-human chimeric mAb anti-FXI 34.2. Besides, the “APTT (% NPP)” value in assay [2] came out at 248 % NPP. The Kd in assay [3] worked out at 0.25 nM.

B8: composite human mAb VH1/Vκ3 (antibody, V domains shown)
VH: QVQLVQSGSELKKPGASVKLSCKASGYTFTRYWMHWVKQAHGQGLEWIGNIYPDSDSTNYDEKFRTRATLTADTSTSTAYMHLSSLTSEDSAVYYCTRMGFYAMDYWGQGTSVTVSS
VL: DIVMTQSPSSLSASVGDRVTITCKASENVVTYVSWFQQKPGQAPKLLIYGASNRYTGVPDRFSGSGSGTDFTLTISSLQAEDVADYHCGQSYSYPLTFGQGTKLEIKR
notes: as for B1
With B8, in assay [1], the “Relative IC50” value was 0.91 relative to IC50 of mouse-human chimeric mAb anti-FXI 34.2. Besides, the “APTT (% NPP)” value in assay [2] turned out to be 257 % NPP. In assay [3], this molecule displayed a Kd of 0.17 nM.

B9: composite human mAb VH3/Vκ2 (antibody, V domains shown)
VH: QVQLVQSGSELKKPGASVKLSCKASGYTFTRYWMHWVRQAPGQGLEWIGNIYPDSDSTNYDEKFRTRVTLTADTSTSTAYMELSSLRSEDTAVYYCTRMGFYAMDYWGQGTTVTVSS
VL: NIVMTQSPSSLSASVGDRVTITCKASENVVTYVSWFQQKPGQAPKLLIYGASNRYTGVPDRFSGSGSATDFTLTISSLQAEDVADYHCGQSYSYPLTFGQGTKLEIKR
notes: as for B1
Take B9: the “Relative IC50” value in assay [1] was 0.87 relative to IC50 of mouse-human chimeric mAb anti-FXI 34.2. Also, in assay [2], the “APTT (% NPP)” value was found to be 255 % NPP. In addition, the dissociation constant Kd in assay [3] is 0.079 nM.

B10: composite human mAb VH3/Vκ4 (antibody, V domains shown)
VH: QVQLVQSGSELKKPGASVKLSCKASGYTFTRYWMHWVRQAPGQGLEWIGNIYPDSDSTNYDEKFRTRVTLTADTSTSTAYMELSSLRSEDTAVYYCTRMGFYAMDYWGQGTTVTVSS
VL: DIVMTQSPSSLSASVGDRVTITCKASENVVTYVSWFQQKPGQAPKLLIYGASNRYTGVPDRFSGSGSGTDFTLTISSLQAEDVATYHCGQSYSYPLTFGQGTKLEIKR
notes: as for B1
In the case of B10, the “Relative IC50” value in assay [1] is 1.13 relative to IC50 of mouse-human chimeric mAb anti-FXI 34.2. Moreover, the “APTT (% NPP)” value in assay [2] is 255 % NPP. This molecule had a dissociation constant (Kd) in assay [3] of 0.42 nM.

B11: composite human mAb VH2/Vκ3 (antibody, V domains shown)
VH: QVQLVQSGSELKKPGASVKLSCKASGYTFTRYWMHWVKQAPGQGLEWIGNIYPDSDSTNYDEKFRTRATLTADTSTSTAYMELSSLRSEDTAVYYCTRMGFYAMDYWGQGTTVTVSS
VL: DIVMTQSPSSLSASVGDRVTITCKASENVVTYVSWFQQKPGQAPKLLIYGASNRYTGVPDRFSGSGSGTDFTLTISSLQAEDVADYHCGQSYSYPLTFGQGTKLEIKR
notes: as for B1
On to B11, for which the “Relative IC50” value in assay [1] was 0.93 relative to IC50 of mouse-human chimeric mAb anti-FXI 34.2. In addition, in assay [2], the “APTT (% NPP)” value came to 247 % NPP. The molecule further yielded a Kd in assay [3] of 0.51 nM.

B12: composite human mAb VH1/Vκ1 (antibody, V domains shown)
VH: QVQLVQSGSELKKPGASVKLSCKASGYTFTRYWMHWVKQAHGQGLEWIGNIYPDSDSTNYDEKFRTRATLTADTSTSTAYMHLSSLTSEDSAVYYCTRMGFYAMDYWGQGTSVTVSS
VL: NIVMTQSPSSLSASVGDRVTITCKASENVVTYVSWFQQKPGQAPKLLIYGASNRYTGVPDRFTGSGSATDFTLTISSLQAEDVADYHCGQSYSYPLTFGQGTKLEIKR
notes: as for B1
For B12, the “Relative IC50” value in assay [1] was 0.75 relative to IC50 of mouse-human chimeric mAb anti-FXI 34.2. Also, the “APTT (% NPP)” value in assay [2] was found to be 253 % NPP. Moreover, the Kd in assay [3] is 0.12 nM.

B13: mouse mAb anti-FXI 34.2 (antibody, V domains shown)
VH: QVQLQQPGSELVRPGASVKLSCKASGYTFTRYWMHWVKQRHGQGLEWIGNIYPDSDSTNYDEKFRTKATLTADTSSSTAYMHLSSLTSEDSAVYYCTRMGFYAMDYWGQGTSVTVSS
VL: NIVMTQSPKSMSMSVGERVTLSCKASENVVTYVSWFQHKPEQSPKLLIYGASNRYTGVPDRFTGSGSATDFTLTISSVQAEDLADYHCGQSYSYPLTFGAGTKLELKR
notes: Mouse IgG purified from hybridoma supernatant by protein G
Regarding B13, in assay [4], the equilibrium dissociation constant (Kd) came out at 0.2 nM. That is a sub-nanomolar value.

Source of the values: patent publication US20190106509A1 (PROTHIX B V, published 2019).
